Results taken from publication PMC9918532.

Legend:
[1] = HA-Ub in-cell ubiquitination, anti-HA and anti-K48 blot; conditions: glycan lost; control: untreated / control shRNA
[2] = nuclear/cytosolic fractionation and immunofluorescence
[3] = immunoblot of endogenous YTHDF2, hepatoma cells; conditions: control: untreated / control shRNA
[4] = CHX chase, Flag-YTHDF2 in HepG2-HBV1.3; conditions: glycan lost; control: control shRNA
[5] = CHX chase, endogenous YTHDF2 in HepAD38; conditions: glycan lost; control: control shRNA
[6] = in vitro ubiquitination with His-OGT and UDP-GlcNAc; conditions: glycan lost; control: YTHDF2-WT
[7] = actinomycin D chase, RT-qPCR, HepG2-HBV1.3-shYTHDF2; conditions: glycan lost; control: YTHDF2-WT
[8] = HA-Ub in-cell ubiquitination, Flag IP, MG132; conditions: glycan lost; control: YTHDF2-WT
[9] = CHX chase, HepG2-HBV1.3-shYTHDF2, anti-Flag blot; conditions: glycan lost; control: YTHDF2-WT
[10] = CHX chase, HepG2-HBV1.3-shYTHDF2; conditions: glycan gained; control: untreated Flag-YTHDF2-WT

B1: YTHDF2: OSMI-1 (protein)
parent chain: MSASSLLEQRPKGQGNKVQNGSVHQKDGLNDDDFEPYLSPQARPNNAYTAMSDSYLPSYYSPSIGFSYSLGEAAWSTGGDTAMPYLTSYGQLSNGEPHFLPDAMFGQPGALGSTPFLGQHGFNFFPSGIDFSAWGNNSSQGQSTQSSGYSSNYAYAPSSLGGAMIDGQSAFANETLNKAPGMNTIDQGMAALKLGSTEVASNVPKVVGSAVGSGSITSNIVASNSLPPATIAPPKPASWADIASKPAKQQPKLKTKNGIAGSSLPPPPIKHNMDIGTWDNKGPVAKAPSQALVQNIGQPTQGSPQPVGQQANNSPPVAQASVGQQTQPLPPPPPQPAQLSVQQQAAQPTRWVAPRNRGSGFGHNGVDGNGVGQSQAGSGSTPSEPHPVLEKLRSINNYNPKDFDWNLKHGRVFIIKSYSEDDIHRSIKYNIWCSTEHGNKRLDAAYRSMNGKGPVYLLFSVNGSGHFCGVAEMKSAVDYNTCAGVWSQDKWKGRFDVRWIFVKDVPNSQLRHIRLENNENKPVTNSRDTQEVPLEKAKQVLKIIASYKHTTSIFDDFSHYEKRQEEEESVKKERQGRGK
In the case of B1, the “other: ubiquitination” value [1] is reported as “increases”, the localisation_or_trafficking ([2]; glycan lost, control: untreated) is reported as “no change” and the expression_or_secretion ([3]; glycan lost) is reported as “decreases”.

B2: YTHDF2: shOGT (protein)
parent chain: B1 parent chain
For B2, the degradation_or_half_life [4] was “decreases”, the “other: ubiquitination” value [1] was “increases” and the degradation_or_half_life [5] was “decreases”.

B3: YTHDF2: S263A (protein)
parent chain: B1 parent chain
With B3 the “other: ubiquitination” value [6] was “increases”, the localisation_or_trafficking ([2]; glycan lost, control: YTHDF2-WT) was “no change” and the “other: stabilisation of target mRNA” value [7] was “decreases”. The “other: ubiquitination” value [8] was “increases” and the degradation_or_half_life [9] was “decreases”.

B4: YTHDF2: TMG (protein)
parent chain: B1 parent chain
In the case of B4, the degradation_or_half_life [10] is reported as “increases”, the localisation_or_trafficking ([2]; glycan gained, control: untreated) is reported as “no change” and the expression_or_secretion ([3]; glycan gained) is reported as “increases”.

B5: YTHDF2: OGT knockdown (protein)
parent chain: B1 parent chain
For B5, the expression_or_secretion ([3]; glycan lost) was “decreases”.
